Experimental data: article PMC10450741

Molecular target: biotinylated γTuRC-mBFP-AviTag (human | human (endogenous in HeLa-Kyoto)) (UniProt Q9BSJ2)
Assay: TIRF microscopy; γTuRC nucleation assay: biotinylated γTuRC-mBFP-AviTag held on the glass by NeutrAvidin (1-2.5 nM used), 11-15 µM tubulin, 1 mM GTP, 1 mM ATP, with or without mScarlet-KIF2A (20-100 nM), mCherry-MCAK or spastin (100 nM); 33°C, 20-30 min

Sequence of microtubules polymerised from pig brain tubulin (P02550 whole entry): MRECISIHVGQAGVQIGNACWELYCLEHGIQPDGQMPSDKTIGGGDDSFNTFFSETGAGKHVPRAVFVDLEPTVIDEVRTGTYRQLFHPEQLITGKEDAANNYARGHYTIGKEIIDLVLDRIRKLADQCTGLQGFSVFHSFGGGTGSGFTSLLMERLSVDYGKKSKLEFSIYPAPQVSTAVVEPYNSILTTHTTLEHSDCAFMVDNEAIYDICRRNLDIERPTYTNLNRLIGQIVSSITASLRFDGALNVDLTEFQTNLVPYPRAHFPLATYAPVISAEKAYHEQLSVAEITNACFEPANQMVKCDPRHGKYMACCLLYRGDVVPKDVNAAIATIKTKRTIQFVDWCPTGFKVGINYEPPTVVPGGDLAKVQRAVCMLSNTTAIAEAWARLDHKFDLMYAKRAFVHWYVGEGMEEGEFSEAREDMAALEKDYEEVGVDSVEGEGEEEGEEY
Sequence of microtubules polymerised from pig brain tubulin (Q767L7 whole entry): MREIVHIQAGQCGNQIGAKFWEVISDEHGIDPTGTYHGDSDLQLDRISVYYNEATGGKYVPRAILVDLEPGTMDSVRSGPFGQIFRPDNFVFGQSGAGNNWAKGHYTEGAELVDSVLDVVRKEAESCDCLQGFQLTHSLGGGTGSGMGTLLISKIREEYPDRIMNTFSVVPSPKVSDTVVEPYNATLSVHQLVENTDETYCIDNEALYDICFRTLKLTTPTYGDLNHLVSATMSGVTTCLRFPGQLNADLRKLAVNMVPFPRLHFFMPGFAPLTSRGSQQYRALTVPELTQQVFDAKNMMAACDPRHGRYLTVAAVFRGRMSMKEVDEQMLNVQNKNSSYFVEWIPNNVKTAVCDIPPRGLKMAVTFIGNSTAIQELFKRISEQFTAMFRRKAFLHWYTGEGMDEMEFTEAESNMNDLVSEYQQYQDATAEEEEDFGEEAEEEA
Sequence of biotinylated γTuRC-mBFP-AviTag (human | human (endogenous in HeLa-Kyoto)) (Q9BSJ2 whole entry, looked up): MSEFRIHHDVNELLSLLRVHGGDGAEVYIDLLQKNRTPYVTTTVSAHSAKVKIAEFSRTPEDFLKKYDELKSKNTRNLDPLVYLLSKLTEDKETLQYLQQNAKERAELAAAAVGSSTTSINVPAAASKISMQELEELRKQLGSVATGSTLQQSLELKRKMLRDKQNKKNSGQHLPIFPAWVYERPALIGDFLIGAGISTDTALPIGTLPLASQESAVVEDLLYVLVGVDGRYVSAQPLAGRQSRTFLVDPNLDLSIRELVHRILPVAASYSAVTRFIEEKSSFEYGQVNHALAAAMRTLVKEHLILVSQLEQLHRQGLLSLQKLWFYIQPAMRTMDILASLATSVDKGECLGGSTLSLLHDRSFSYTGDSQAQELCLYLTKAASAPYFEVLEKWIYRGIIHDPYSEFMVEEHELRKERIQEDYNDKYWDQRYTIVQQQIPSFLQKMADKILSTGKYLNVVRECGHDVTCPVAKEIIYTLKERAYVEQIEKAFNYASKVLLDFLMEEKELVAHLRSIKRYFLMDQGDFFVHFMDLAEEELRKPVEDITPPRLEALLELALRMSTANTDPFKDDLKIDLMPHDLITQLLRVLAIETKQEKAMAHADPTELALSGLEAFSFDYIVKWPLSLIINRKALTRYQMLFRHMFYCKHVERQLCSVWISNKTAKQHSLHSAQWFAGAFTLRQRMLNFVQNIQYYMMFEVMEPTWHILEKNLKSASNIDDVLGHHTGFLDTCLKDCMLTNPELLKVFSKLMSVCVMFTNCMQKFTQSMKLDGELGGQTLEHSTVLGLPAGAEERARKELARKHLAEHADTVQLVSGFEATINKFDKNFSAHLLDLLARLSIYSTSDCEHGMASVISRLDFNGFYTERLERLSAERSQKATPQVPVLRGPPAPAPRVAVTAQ

microtubules polymerised from pig brain tubulin (from UniProt P02550 1-451; Q767L7 1-444) (complex)
percent of microtubules released from immobilized γTuRC (with 20 nM mScarlet-KIF2A alone): 2% | percent of microtubules released from immobilized γTuRC (with 100 nM spastin alone): 1% | percent of microtubules released from immobilized γTuRC (with 100 nM spastin and 20 nM mScarlet-KIF2A): 40%
